Experimental data published in US20130130989A1 (AGENCY FOR SCIENCE TECHNOLOGY AND RESEARCH, published 2013).
Square brackets hold non-standard residues; d marks the D form. Ends that are not written are not given here. αMeF = C[C@](N)(Cc1ccccc1)C(=O)O; Ac5c = NC1(C(=O)O)CCCC1; Aib = CC(C)(N)C(=O)O

Experiments:
[1] = molecular target: eukaryotic translation initiation factor 4E (eIF4E), full length human (human) (UniProt P06730); assay: Kd estimated from FTS thermal shift
[2] = molecular target: eukaryotic translation initiation factor 4E (eIF4E), full length human (human) (UniProt P06730); assay: fluorescence-based thermal shift assay (FTS), Sypro Red, 10 µM eIF4E, 100 µM peptide
[3] = molecular target: T1, eukaryotic translation initiation factor 4E (eIF4E), full length human (human, UniProt P06730 2-217); assay: as above
T1 construct: mature; read as P06730; also called eIF4E protein
T1 sequence (P06730 2-217): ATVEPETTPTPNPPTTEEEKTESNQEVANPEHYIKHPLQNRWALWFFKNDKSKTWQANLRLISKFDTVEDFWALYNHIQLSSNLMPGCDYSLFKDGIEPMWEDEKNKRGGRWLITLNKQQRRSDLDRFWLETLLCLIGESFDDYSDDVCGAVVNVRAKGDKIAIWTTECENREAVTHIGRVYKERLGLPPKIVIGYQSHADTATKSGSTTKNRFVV
Method: The fluorescent dye Sypro Red was used to monitor thermal denaturation of eIF4E. Binding of the dye molecule to eIF4E, as it unfolds due to thermal denaturation, results in a sharp increase in the fluorescence intensity. The midpoint of this transition is termed the Tₘ. The thermal shift assay was conducted in the iCycler Real Time Detection System (Bio-Rad, Hercules, Calif.). The system contains a heating/cooling device for accurate temperature control and a charge-coupled device (CCD) detector for simultaneous imaging of the fluorescence changes in the wells of the microplate. […] The final protein concentration was 10 μM. Protein samples were incubated with derivative peptides at a concentration of a 100 μM. The plate was heated from 20 to 90° C. with a heating rate of 1° C./min.

[4] = molecular target: T1, eukaryotic translation initiation …; assay: Kd estimated from the FTS thermal shift of eIF4E (10 µM eIF4E, 100 µM peptide)
Method: A fluorescence based thermal shift assay was used to screen and rank the rationally designed eIF4E binding derivative peptides. The fluorescent dye Sypro Red was used to monitor thermal denaturation of eIF4E. Binding of the dye molecule to eIF4E, as it unfolds due to thermal denaturation, results in a sharp increase in the fluorescence intensity. The midpoint of this transition is termed the Tₘ. The thermal shift assay was conducted in the iCycler Real Time Detection System (Bio-Rad, Hercules, Calif.).

[5] = molecular target: T1, eukaryotic translation initiation …; assay: ITC, peptide titrated into eIF4E, 20 °C, PBS, one-to-one binding model
Method: (§1) ITC experiments were conducted in a VP-ITC Unit (MicroCal, Northampton, Mass.). […] The buffer used for dialysis of the protein was used to dilute the peptides to their final working concentration. The protein buffer solution was matched to the peptide solution by the addition of DMSO in the case of the non TAT fused peptides. The titration experiments were performed at 20° C. with an initial 2 μl injection with duration of 4 s, fooled by 28 10 μl injections with a duration of 7.1 s. The spacing between each injection was 150 s. The stirring speed during the titration was 290 rpm. Data was analyzed using Microcal Origin software by fitting to a single-site binding model. Correction for the enthalpy of ligand dilution was carried out by subtracting a linear fit from the last three data points of the titration, after the interaction had reached saturation.

[6] = molecular target: T1, eukaryotic translation initiation …; assay: ITC, peptide titrated into eIF4E, 20° C.
Method: as §1

[7] = molecular target: T1, eukaryotic translation initiation …; assay: ITC, peptide titrated into eIF4E, 20 °C, PBS, one-to-one binding model; entropy calculated; design: unit not given here
[8] = molecular target: T1, eukaryotic translation initiation …; assay: ITC
[9] = molecular target: T1, eukaryotic translation initiation …; assay: fluorescence-based thermal shift assay (FTS), Sypro Red, 10 µM eIF4E, 200 µM peptide (*)
Method: A fluorescence based thermal shift assay was used to screen and rank the rationally designed eIF4E binding derivative peptides. The fluorescent dye Sypro Red was used to monitor thermal denaturation of eIF4E. Binding of the dye molecule to eIF4E, as it unfolds due to thermal denaturation, results in a sharp increase in the fluorescence intensity. The midpoint of this transition is termed the Tₘ. The thermal shift assay was conducted in the iCycler Real Time Detection System (Bio-Rad, Hercules, Calif.). The system contains a heating/cooling device for accurate temperature control and a charge-coupled device (CCD) detector for simultaneous imaging of the fluorescence changes in the wells of the microplate.

[10] = molecular target: T1, eukaryotic translation initiation …; assay: Kd estimated from the FTS thermal shift of eIF4E (10 µM eIF4E, 200 µM peptide)
[11] = molecular target: T1, eukaryotic translation initiation …; assay: fluorescence-based thermal stability assay (FTS)
[12] = molecular target: T1, eukaryotic translation initiation …; assay: ITC, apparent Kd against the template peptide
Method: as §1

[13] = molecular target: T1, eukaryotic translation initiation …; assay: FTS thermal shift assay
[14] = molecular target: T1, eukaryotic translation initiation …; assay: ITC, peptide titrated into eIF4E, 20 °C, PBS, one-to-one binding model; design: unit not given here
[15] = molecular target: T1, eukaryotic translation initiation …; assay: ITC, peptide titrated into eIF4E, 20 °C, PBS, one-to-one binding model; entropy calculated
[16] = molecular target: T1, eukaryotic translation initiation …; assay: ITC, apparent Kd

eukaryotic translation initiation factor 4E (eIF4E), full length human (human), sequence (P06730 2-217): as above

Molecule: Tr2_AIB3_A5C peptide (YDREFLL5FQF)
- Kd [1]: 1450 nM
- ΔT (°C) [2]: 6.6 °C

B1: Tr2_AIB3 peptide (peptide)
peptide: YDREFLLXFQF
modifications: not fully specified; G631 replaced with aminoisobutyric acid (Aib)
- ΔT (°C) [3]: 5.42 °C
- Kd [4]: 3050 nM

B2: Tr2_ALA_A5C2 (Tr2_AIB3_A5C with R626 replaced with alanine) (peptide)
peptide: YDAEFLL[Ac5c]FQF
modifications: not fully specified (C-terminus)
- ΔT (°C) [3]: 2.69 °C
- Kd [4]: 14300 nM

B3: Tr2_ALA_A5C4 (Tr2_AIB3_A5C with F628 replaced with alanine) (peptide)
peptide: YDREALL[Ac5c]FQF
modifications: not fully specified (C-terminus)
notes: 29=625, 30=626, 31=627, 34=633)
- ΔT (°C) [3]: 3.72 °C
- Kd [4]: 8090 nM

B4: Tr2_ALA_A5C3 (Tr2_AIB3_A5C with alanine at position 627) (peptide)
peptide: YDRAFLL[Ac5c]FQF
modifications: not fully specified (C-terminus)
- ΔT (°C) [3]: 4.22 °C
- Kd [4]: 1220 nM

B5: Tr2_ALA_A5C1 (Tr2_AIB3_A5C with alanine at position 625) (peptide)
peptide: YAREFLL[Ac5c]FQF
modifications: not fully specified (C-terminus)
- ΔT (°C) [3]: 5.02 °C
- Kd [4]: 760 nM

B6: Tr2_ALA_A5C7 (Tr2_AIB3_A5C with F634 replaced with alanine) (peptide)
peptide: YDREFLL[Ac5c]FQA
modifications: not fully specified (C-terminus)
- ΔT (°C) [3]: 5.48 °C
- Kd [4]: 2900 nM

B7: Tr2_ALA_A5C5 (Tr2_AIB3_A5C with F632 replaced with alanine) (peptide)
peptide: YDREFLL[Ac5c]AQF
modifications: not fully specified (C-terminus)
- ΔT (°C) [3]: 3.65 °C
- Kd [4]: 8400 nM

B8: Tr2_ALA_A5C6 (Tr2_AIB3_A5C with alanine at position 633) (peptide)
peptide: YDREFLL[Ac5c]FAF
modifications: not fully specified (C-terminus)
- ΔT (°C) [3]: 6.72 °C
- Kd [4]: 1370 nM

B9: Tr2_AIB3_A3C (peptide)
peptide: YDREFLLXFQF
modifications: position 631 (printed '3') = 1-amino cyclopropanoic acid; C-terminal amide (-NH2)
- ΔT (°C) [3]: 5.67 °C
- Kd [4]: 2500 nM

B10: Tr2_AIB4 peptide (peptide)
peptide: YDREFLLGF[Aib]F
modifications: not fully specified (C-terminus)
- ΔT (°C) [3]: 1.52 °C
- Kd [4]: 25100 nM

B11: Tr2_AIB3_A4C (peptide)
peptide: YDREFLLXFQF
modifications: position 631 (printed '4') = 1-amino cyclobutanoic acid; C-terminal amide (-NH2)
- ΔT (°C) [3]: 5.8 °C
- Kd [4]: 2350 nM

B12: Tr2 peptide (truncated 11mer eIF4G1 peptide) (peptide)
peptide: YDREFLLGFQF
modifications: not fully specified (C-terminus)
notes: also called truncated Tr2
- ΔT (°C) [3]: 4.2 °C
- Kd [5]: 1010 nM
- Kd [6]: 1040 nM
- Kd [4]: 5960 nM
- -TΔS [7]: -2.91
- binding enthalpy [8]: -10.9 kcal/mol

B13: Tr2_AIB3_ALA (peptide)
peptide: YDREFLLAFQF-NH2
modifications: not fully specified
- ΔT (°C) [3]: 5.6 °C
- Kd [4]: 2550 nM

B14: 11mer (control) peptide with the conserved tyrosine mutated to alanine (peptide)
peptide: ADREFLLGFQF
modifications: not fully specified (C-terminus)
- binding result [9]: no binding (tested: 200 µM)
- ΔT (°C) [9]: 0.65 °C

B15: Tr2_me5_3 (peptide)
peptide: YDREFLLXFQX
modifications: position 631 (printed '5') = 1-amino cyclopentanoic acid; position 634 (printed '*') = Cα-Me-L-Phenylalanine; C-terminal amide (-NH2)
- ΔT (°C) [3]: 5.8 °C
- Kd [4]: 2400 nM

B16: Tr1 (peptide)
peptide: KKRYDREFLL-NH2
- Kd [10]: 50200 nM
- ΔT (°C) [9]: 1.7 °C

B17: Tr2_AIB1 peptide (peptide)
peptide: Y[Aib]REFLLGFQF
modifications: not fully specified (C-terminus)
- ΔT (°C) [3]: 1.32 °C
- Kd [4]: 29800 nM

B18: Tr2_me5-1 peptide (YDRE*LL5FQF) (peptide)
peptide: YDREXLLXFQF
modifications: not fully specified; Cα-methyl-L-phenylalanine at position 628; 1-aminocyclopentanecarboxylic acid (A5C) at position 631
notes: also called truncated modified Tr2_me5-1 peptide
- ΔT (°C) [3]: 8.8 °C
- Kd [6]: 146 nM
- Kd [4]: 360 nM
- -TΔS [7]: -6.89
- binding enthalpy [8]: -16.1 kcal/mol

B19: Tr2_AIB2 peptide (peptide)
peptide: YDR[Aib]FLLGFQF
modifications: not fully specified (C-terminus)
- binding result [3]: no binding (tested: 100 µM)

B20: Tr3 (peptide)
peptide: YDREFLLGFQ-NH2
- Kd [10]: 35200 nM
- ΔT (°C) [9]: 2.25 °C

B21: TAT peptide (YGRKKRRQRRR) (peptide)
peptide: YGRKKRRQRRR
notes: also called TAT tag
- binding result [11]: no binding

B22: eIF4G1_me5 peptide (KKRYDRE*LL5FQF) (peptide)
peptide: KKRYDRE[αMeF]LL[Ac5c]FQF
modifications: not fully specified (C-terminus)
notes: also called modified 14mer eIF4G1_me5 peptide; helically stabilized peptide
- ΔT (°C) [3]: 14.6 °C
- fold more potent than the template peptide (eIF4G1) [12]: ~15.7 fold
- Kd [6]: 9.43 nM
- fold increase in thermal shift over the original 14-mer eIF4G1 peptide [13]: 1.7 fold
- thermal shift in the melting temperature of eIF4E [13]: ~14 ° C.
- Kd [4]: 7 nM
- -TΔS [7]: -3.69
- binding enthalpy [8]: -14.4 kcal/mol
- ΔΔG against the template peptide (eIF4G1) [8]: ~1.6 kcal/mol

B23: TAT_eIF4G1_me5 peptide (YGRKKRRQRRRGTKKRYDRE*LL5FQF) (peptide)
peptide: YGRKKRRQRRRGTKKRYDRE[αMeF]LL[Ac5c]FQF
- ΔH [14]: -12.4
- ΔS [15]: -5.69 Cal mol-1K-1
- thermal shift in the Tm of eIF4E greater than that of the TAT_eIF4G1 peptide [13]: ~0.82 ° C.
- Kd [16]: 10.2 nM

B24: TAT_eIF4G1 peptide (peptide)
peptide: YGRKKRRQRRRGTKKRYDREFLLGFQF
notes: also called eIF4G1 TAT fused peptide
- ΔH [14]: -5.52
- ΔS [15]: 15 Cal mol-1K-1
- fold lower Kd than the shorter parent peptide (eIF4G1) [8]: ~2.7 fold
- Kd [16]: 56.2 nM
